Common to all, as to experiment: SPR, Fab over captured mutant LAG-3-Fc;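 further: fc fusion variants captured on anti-human IgG Fc sensor, Fab injected with association then dissociation phases, KD obtained from Langmuir one-to-one fit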
A general note: Surface plasmon resonance follows binding to a sensor surface in real time, without labels.

Assay [1] has as its target T1, human LAG-3 domain 1-2 Fc fusion, point mutation #59 Q117A (human, UniProt P18627 23-266).
T1 construct: not shown: human IgG1 Fc, AA P101-K330
T1 sequence: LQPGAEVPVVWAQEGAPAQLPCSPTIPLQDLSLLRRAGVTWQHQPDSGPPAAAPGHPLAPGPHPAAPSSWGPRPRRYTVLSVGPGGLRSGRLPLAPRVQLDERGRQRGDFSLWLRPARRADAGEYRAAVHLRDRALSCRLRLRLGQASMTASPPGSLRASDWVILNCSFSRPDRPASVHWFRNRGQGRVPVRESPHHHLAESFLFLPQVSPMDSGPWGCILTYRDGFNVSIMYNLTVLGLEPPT

For assay [2], the target named is T2, human LAG-3 domain 1-2 Fc fusion, point mutation #70 G130A (human, UniProt P18627 23-266).
T2 construct: not shown: human IgG1 Fc, AA P101-K330
T2 sequence: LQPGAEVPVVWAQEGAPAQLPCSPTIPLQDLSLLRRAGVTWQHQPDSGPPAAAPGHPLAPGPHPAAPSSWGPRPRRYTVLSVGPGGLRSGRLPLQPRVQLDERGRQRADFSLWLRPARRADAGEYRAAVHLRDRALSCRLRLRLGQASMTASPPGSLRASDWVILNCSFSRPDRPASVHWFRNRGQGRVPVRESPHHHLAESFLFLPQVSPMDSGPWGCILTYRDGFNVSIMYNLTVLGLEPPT

Assay [3] deals with T3, human LAG-3 domain 1-2 Fc fusion, point mutation #8 Q51A (human, UniProt P18627 23-266).
T3 construct: not shown: human IgG1 Fc, AA P101-K330
T3 sequence: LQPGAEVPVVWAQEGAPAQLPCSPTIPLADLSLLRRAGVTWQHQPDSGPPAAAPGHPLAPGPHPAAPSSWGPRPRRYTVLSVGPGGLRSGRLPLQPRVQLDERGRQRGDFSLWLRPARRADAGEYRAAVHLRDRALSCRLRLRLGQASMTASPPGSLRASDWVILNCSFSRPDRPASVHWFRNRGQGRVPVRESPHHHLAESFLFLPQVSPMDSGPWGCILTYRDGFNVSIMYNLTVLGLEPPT

The target in assay [4] is T4, human LAG-3 domain 1-2 Fc fusion, point mutation #36 P89A (human, UniProt P18627 23-266).
T4 construct: not shown: human IgG1 Fc, AA P101-K330
T4 sequence: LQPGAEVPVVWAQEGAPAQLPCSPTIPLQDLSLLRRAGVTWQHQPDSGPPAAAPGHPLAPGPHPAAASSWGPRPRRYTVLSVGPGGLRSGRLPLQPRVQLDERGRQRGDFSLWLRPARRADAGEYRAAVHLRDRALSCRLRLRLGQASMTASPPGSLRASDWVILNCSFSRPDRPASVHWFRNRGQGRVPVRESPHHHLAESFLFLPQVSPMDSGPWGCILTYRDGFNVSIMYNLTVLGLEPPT

Assay [5] concerns the target T5, human LAG-3 domain 1-2 Fc fusion, point mutation #29 P82A (human, UniProt P18627 23-266).
T5 construct: not shown: human IgG1 Fc, AA P101-K330
T5 sequence: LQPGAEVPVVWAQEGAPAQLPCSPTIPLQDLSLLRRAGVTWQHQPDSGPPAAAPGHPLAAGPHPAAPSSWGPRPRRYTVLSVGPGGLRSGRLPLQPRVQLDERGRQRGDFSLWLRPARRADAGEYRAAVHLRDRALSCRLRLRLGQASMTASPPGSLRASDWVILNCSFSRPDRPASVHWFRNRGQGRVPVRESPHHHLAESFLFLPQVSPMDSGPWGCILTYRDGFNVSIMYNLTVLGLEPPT

Assay [6] concerns the target T6, human LAG-3 domain 1-2 Fc fusion, point mutation #61 R119A (human, UniProt P18627 23-266).
T6 construct: not shown: human IgG1 Fc, AA P101-K330
T6 sequence: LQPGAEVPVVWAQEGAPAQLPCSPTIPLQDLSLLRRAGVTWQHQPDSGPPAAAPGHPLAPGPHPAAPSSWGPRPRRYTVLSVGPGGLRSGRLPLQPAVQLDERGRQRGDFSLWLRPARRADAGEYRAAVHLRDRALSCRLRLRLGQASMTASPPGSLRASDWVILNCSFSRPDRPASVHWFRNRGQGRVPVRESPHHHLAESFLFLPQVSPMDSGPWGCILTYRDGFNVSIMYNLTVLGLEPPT

In assay [7] the target is T7, human LAG-3 domain 1-2 Fc fusion, point mutation #67 R127A (human, UniProt P18627 23-266).
T7 construct: not shown: human IgG1 Fc, AA P101-K330
T7 sequence: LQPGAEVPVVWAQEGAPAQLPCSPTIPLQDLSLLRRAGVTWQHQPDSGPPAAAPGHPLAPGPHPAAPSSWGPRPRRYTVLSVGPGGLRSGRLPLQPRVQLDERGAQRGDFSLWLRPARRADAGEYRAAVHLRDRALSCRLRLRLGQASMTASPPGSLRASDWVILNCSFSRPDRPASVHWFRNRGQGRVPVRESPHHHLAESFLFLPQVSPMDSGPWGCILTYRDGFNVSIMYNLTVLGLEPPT

Assay [8] has as its target T8, human LAG-3 domain 1-2 Fc fusion, point mutation #54 R110A (human, UniProt P18627 23-266).
T8 construct: not shown: human IgG1 Fc, AA P101-K330
T8 sequence: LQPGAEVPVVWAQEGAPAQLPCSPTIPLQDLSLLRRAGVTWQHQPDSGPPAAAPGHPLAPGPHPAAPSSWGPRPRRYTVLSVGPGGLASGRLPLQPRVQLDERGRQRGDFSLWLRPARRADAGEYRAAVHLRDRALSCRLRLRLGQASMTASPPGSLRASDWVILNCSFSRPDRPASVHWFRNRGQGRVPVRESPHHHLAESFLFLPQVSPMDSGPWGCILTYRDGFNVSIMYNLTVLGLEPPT

For assay [9], the target named is T9, human LAG-3 domain 1-2 Fc fusion, point mutation #42 R95A (human, UniProt P18627 23-266).
T9 construct: not shown: human IgG1 Fc, AA P101-K330
T9 sequence: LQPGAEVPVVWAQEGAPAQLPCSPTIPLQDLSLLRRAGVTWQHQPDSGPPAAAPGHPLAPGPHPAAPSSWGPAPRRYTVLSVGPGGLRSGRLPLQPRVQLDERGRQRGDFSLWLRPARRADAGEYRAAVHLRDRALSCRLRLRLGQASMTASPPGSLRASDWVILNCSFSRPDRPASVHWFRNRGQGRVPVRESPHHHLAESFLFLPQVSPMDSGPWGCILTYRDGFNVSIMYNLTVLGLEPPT

B1: Fab fragment of antibody 15011 (Fab, V domains shown, not shown: a dimerising Fc or GST)
VH: EVQLLESGGGLVQPGGSLRLSCAASGFDFRSYAMMWVRQAPGKGLEWVGGINGEVGGSNTYYAPAVKGRATISRDNSKNTLYLQMNSLRAEDTAVYYCVKGAGACGICNDDIDAWGQGTLVTVSS
VL: SYELTQDPAVSVALGQTVRITCSGAGSYAGSYYYGWHQQKPGQAPVTVIYDNDKRPSNIPDRFSGSSSGNTASLTITGAQAEDEADYYCGSTNDNDDGGLFGSGTKVTVLG
notes: monomeric Fab made by GingisKHAN digestion of the IgG1
As for B1, the “KD mutant/KD wild type” value in assay [1] amounted to 0.7 fold; in [2], 0.6 fold; in assay [3], 0.8 fold; in assay [4], 0.9 fold; in assay [5], 0.9 fold; in assay [6], 0.6 fold. The “KD mutant/KD wild type” value in assay [7] is 0.9 fold; in assay [9], 0.7 fold. Moreover, the binding result in [8] was “no binding (tested: 300 nM)”.

B2: Fab fragment of antibody 15572 (Fab, V domains shown, not shown: a dimerising Fc or GST)
VH: QLQLQESGPGLVKPSETLSLTCTVSGDSISSSSYYWGWIRQPPGKGLEWIGSIFYSGNTYYNPSLKSRVTISVDTSKNQFSLKLSSVTAADTAVYYCAREDDFLTDYYGAFDIWGQGTMVTVSS
VL: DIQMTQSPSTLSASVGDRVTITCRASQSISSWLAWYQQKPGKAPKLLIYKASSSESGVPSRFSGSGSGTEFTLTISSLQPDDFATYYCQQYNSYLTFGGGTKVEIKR
notes: as for B1
As to B2, the “KD mutant/KD wild type” value in assay [1] turned out to be 0.5 fold; in assay [3], 0.6 fold; in assay [4] it was 0.8 fold; in [5], 0.8 fold; in assay [7], 0.5 fold; in assay [8] it was 0.6 fold. The “KD mutant/KD wild type” value in assay [9] was 0.6 fold. In addition, the binding result in assay [2] and in assay [6] was “no binding (tested: 300 nM)” in each case.

B3: Fab fragment of antibody 15532 (Fab, V domains shown, not shown: a dimerising Fc or GST)
VH: QVQLQQWGAGLLRPSETLSLTCAVYGESFSGYYWNWIRQPPGKGLEWIGEINHSGSTNYNPSLKSRVTISVDTSKTQFSLKLSSVTAADTAVYYCARGWDLLDWNDYWNEYWGQGTLVTVSS
VL: EIVLTQSPATLSLSPGERATLSCRASQSVSSYLAWYQQKPGQAPRLLIYDASNRATGIPARFSGSGSGTDFTLTISSLEPEDFAVYYCQQRSNWPLTFGGGTKVEIKR
notes: as for B1
For B3, the “KD mutant/KD wild type” value was 0.8 fold in assay [1]; 4.4 fold in [2]; 0.9 fold in assay [3]; 14.2 fold in assay [4]; 1 fold in assay [5]; 3.2 fold in assay [6]. In addition, the “KD mutant/KD wild type” value in assay [7] was 0.6 fold; in [8], 0.9 fold; in [9], 3.7 fold.

B4: Fab fragment of antibody 15431 (Fab, V domains shown, not shown: a dimerising Fc or GST)
VH: QVQLQQSGPGLVKPSQTLSLTCAISGDSVSSNSAAWNWIRQSPSRGLEWLGRTYYRSKWYNDYAVSVKSRITINPDTSKNQFSLQLNSVTPEDTAVYYCARDDDWNDFDYWGQGTLVTVSS
VL: EIVLTQSPATLSLSPGERATLSCRASQSVSSYLAWYQQKPGQAPRLLIYDASNRATGIPARFSGSGSGTDFTLTISSLEPEDFAVYYCQQRSNWPLTFGGGTKVEIKR
notes: as for B1
On to B4, for which the “KD mutant/KD wild type” value amounted to 0.4 fold in assay [1]; 0.7 fold in [3]; 0.8 fold in assay [4]; 1 fold in assay [5]; 0.9 fold in assay [7]; 0.9 fold in assay [8]. For the same molecule, in [9], the “KD mutant/KD wild type” value was determined as 1.9 fold. For the same molecule, the binding result in assay [2] and in assay [6] was “no binding (tested: 300 nM)” throughout.

Values taken from patent publication US20220363757A1 (SYMPHOGEN A S, published 2022).
